The target of assay [1] is T1, PE labeled Gal-3 (Gal-3-PE) (human, UniProt P17931 1-250, limits assumed, labelled with PE (phycoerythrin; Innova Biosciences kit), sites not stated).
T1 construct: Bought human Gal-3 labelled with PE; also called huGal-3 (Abcam ab89487) labelled with PE
Briefly: blockade of Gal-3-PE binding to OVCAR3 cells by purified antibody, number of Gal-3-PE-bound cells (Mirrorball). The source says: Reactions to measure binding of Gal-3-PE to OVCAR3 cells were set up in the presence of PBS (negative control), or increasing concentrations of the indicated antibody. Purified antibodies were used in the binding reactions. Shown are the effects of antibody concentration on the extent of inhibition of Gal-3-PE binding to OVCAR3 by antibody clones 20F08 and 12H07 (FIG. 6A), which have the identical sequences, 46H02 (FIG. 6B), clones 38E05 and 39F02 (FIG. 6C), which also have identical sequences, and 14D11.2D3 (FIG. 6D).
An assay for Gal-3-PE binding to cancer cells was developed as a secondary screen. huGal-3 (Abcam ab89487) was labelled with PE (Innova Biosciences) according to manufacturer's instructions. The assay for Gal-3-PE binding to OVCAR3 cells was performed as follows: cultured […] cells were trypsinized and washed with culture medium. 500, 1000 or 2000 cells were incubated with various concentrations of Gal-3-PE. The indicated number of OVCAR3 cells were pipetted into a 96-well plate with the indicated amount of Gal-3-PE and incubated on the bench in the dark for 2 hrs prior to being read on a Mirrorball® device (TTP Labtech). Binding of Gal-3-PE to OVCAR3 cells was detected using the Mirrorball® flow cytometer.
Next, the clones were subjected to determination of dose-response of blockade of Gal-3-PE binding to OVCAR3 cells. […]

Assay [2] addresses T2, human Galectin-3 (LGALS3) (human, UniProt P17931 2-250, limits assumed).
T2 construct: also called human Gal-3; Gal-3
In words: SPR, increasing concentrations of the mAb. The source says:
Clones 46H02 and 20F08 were then subjected to determination of binding parameters using surface plasmon resonance (SPR) in the presence of increasing concentrations of these antibodies.

Assay [3] addresses T2, human Galectin-3 (LGALS3). In words: ELISA on human Gal-3 (huGal3), one OD450 value per clone.
The target of assay [4] is T3, mouse Gal-3 (mouse, UniProt P16110 2-264, limits assumed).
T3 construct: also called mouse Galectin-3; Lgal3
T3 sequence (P16110 2-264 limits assumed): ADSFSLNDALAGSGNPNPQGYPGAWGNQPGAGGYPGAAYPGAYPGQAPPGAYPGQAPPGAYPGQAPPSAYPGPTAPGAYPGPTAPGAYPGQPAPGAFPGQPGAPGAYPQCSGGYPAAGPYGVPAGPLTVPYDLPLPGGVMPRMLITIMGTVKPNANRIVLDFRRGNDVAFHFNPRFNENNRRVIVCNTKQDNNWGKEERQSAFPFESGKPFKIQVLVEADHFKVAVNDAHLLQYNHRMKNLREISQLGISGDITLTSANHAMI
In words: ELISA on mouse Gal-3 (moGal3), one OD450 value per clone.

Assay [5] has as its target T3, mouse Gal-3. In words: ELISA on mouse Gal-3 (moGal3). For orientation: An ELISA detects its analyte on a solid surface through an enzyme-linked reagent.

Broadly, the Kd is the free concentration of one partner at which half of the binding sites on the other are occupied at equilibrium, for simple one-to-one binding. High values mean weaker binding, low ones tighter binding.

T2 sequence (P17931 2-250 limits assumed): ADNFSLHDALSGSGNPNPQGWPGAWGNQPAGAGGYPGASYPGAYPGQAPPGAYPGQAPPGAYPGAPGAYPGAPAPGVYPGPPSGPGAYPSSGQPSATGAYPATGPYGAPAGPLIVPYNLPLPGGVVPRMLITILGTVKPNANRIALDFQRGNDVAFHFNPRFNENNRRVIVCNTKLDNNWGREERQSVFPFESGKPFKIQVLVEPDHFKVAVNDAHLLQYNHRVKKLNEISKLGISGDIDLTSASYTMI
T1 sequence (P17931 whole entry): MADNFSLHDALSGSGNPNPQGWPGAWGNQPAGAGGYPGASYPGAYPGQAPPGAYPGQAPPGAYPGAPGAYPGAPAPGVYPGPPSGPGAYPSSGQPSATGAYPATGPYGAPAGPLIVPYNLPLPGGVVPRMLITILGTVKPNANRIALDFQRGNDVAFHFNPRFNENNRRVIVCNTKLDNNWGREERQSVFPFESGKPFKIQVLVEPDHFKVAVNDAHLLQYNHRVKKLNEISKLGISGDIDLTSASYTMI

B1: mAb 46H02 (antibody, V domains shown)
VH: QVQLVQSGAEVKKPGASVKVSCKASGYTFTGYSMHWVRQAPGQGLEWMGWINPHSGGTNSAQKFQGRVTMTRDTSIGTAYMELNRLRSDDTAVYYCVRDNPITGFDYWGQGTLVTVSS
VL: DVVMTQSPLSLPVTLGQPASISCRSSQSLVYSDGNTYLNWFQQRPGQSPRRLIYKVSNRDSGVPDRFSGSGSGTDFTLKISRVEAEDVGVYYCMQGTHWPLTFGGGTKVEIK
notes: Hybridoma antibody from AlivaMab Mouse; 46H02 has a fully human F(ab)2 (human light chain); also called clone 46H02
Regarding B1, the “IC50 (read off the curve)” value in assay [1] was around 1 µg/mL. The molecule further yielded a Kd in assay [2] of 10 nM. The OD450 in assay [3] turned out to be 2.56; in assay [4], 1.38.

B2: mAb 39F02 (antibody, V domains shown)
VH: EVQLLESGGGLVQPGGSLRLSCAASGFTLSNYAMSWVRQAPGKGLEWVSAISGSGGGTYNADSVKGRFTISRDNSKNTLYLQMNSLRAEDTAVYYCAKEAWISYFDYWGQGTLVTVSS
VL: DIVMSQSPSSLAVSVGEKVTLSCKSSQSLLYGDDQKNYLAWYQQKPGQSPKLLLYWASTWESGVPDRFTGSGSGTDFTLTISSVKAADLAVYYCQQYYSYPWTFGGGTKLEIK
notes: Hybridoma antibody from AlivaMab Mouse; Human HC (chimeric IgH with mouse CH2 and CH3) and murine LC; also called clone 39F02
As to B2, the OD450 was determined as 0.502 in assay [3] and 0.726 in assay [4].

B3: mAb 38E05 (antibody, V domains shown)
VH: EVQLLESGGGLVQPGGSLRLSCAASGFTLSNYAMSWVRQAPGKGLEWVSAISGSGGGTYNADSVKGRFTISRDNSKNTLYLQMNSLRAEDTAVYYCAKEAWISYFDYWGQGTLVTVSS
VL: DIVMSQSPSSLAVSVGEKVTLSCKSSQSLLYGDDQKNYLAWYQQKPGQSPKLLLYWASTWESGVPDRFTGSGSGTDFTLTISSVKAADLAVYYCQQYYSYPWTFGGGTKLEIK
notes: Hybridoma antibody from AlivaMab Mouse; Human HC (chimeric IgH with mouse CH2 and CH3) and murine LC; also called clone 38E05
Consider B3, for which the OD450 in assay [3] was 0.86; in assay [4], 1.12.

B4: mAb 20F08 (antibody, V domains shown)
VH: EVQLVESGGGLVKPGGSLRLSCAASGFIFSNYNINWVRQAPGKGLEWVSCVSRSNYTYYTDSVKGRFTISRDNAKKSLYLQMNSLRAEDTAVYYCARDCGTYGVFDYWGQGTLVTVSS
VL: ETTVTQSPASLSMAIGEKVTIRCITSTDIDDDMNWYQQKPGEPPKLLISEGNILRPGVPSRFSSSGYGTDFVFAIENMLSEDVADYYCLQSDNLPYTFGGGTKLELK
notes: Hybridoma antibody from AlivaMab Mouse; Human HC (chimeric IgH with mouse CH2 and CH3) and murine LC; also called clone 20F08
B4 came in with a dissociation constant (Kd) in assay [2] of 44 nM. In addition, the values for the OD450 in assay [3] and in assay [4] were 0.523 and 0.047, respectively. For the same molecule, the binding result in assay [5] is given as “no binding”.

B5: mAb 12H07 (antibody, V domains shown)
VH: EVQLVESGGGLVKPGGSLRLSCAASGFIFSNYNINWVRQAPGKGLEWVSCVSRSNYTYYTDSVKGRFTISRDNAKKSLYLQMNSLRAEDTAVYYCARDCGTYGVFDYWGQGTLVTVSS
VL: ETTVTQSPASLSMAIGEKVTIRCITSTDIDDDMNWYQQKPGEPPKLLISEGNILRPGVPSRFSSSGYGTDFVFAIENMLSEDVADYYCLQSDNLPYTFGGGTKLELK
notes: Hybridoma antibody from AlivaMab Mouse; Human HC (chimeric IgH with mouse CH2 and CH3) and murine LC; also called 12H7; clone 12H07
For B5, the values for the OD450 in assay [3] and in assay [4] were 1.4 and 0.049, respectively. The binding result in assay [5] is “no binding”.

Values taken from patent US20240026009A1 (Memorial Sloan Kettering, published 2024).
